Test results as given in the supplement of paper PMC9170038.

What was measured:
Settings in all cases: FMN input: 0 or 200 uM; Eterna round: R93 (includes R88 designs)
MS2 coat protein [1] = experiment: apparent KD of MS2 coat protein, switch ON state; designed switch direction (-1 OFF switch, 1 ON switch): 1; higher = weaker reporter binding
Outline: (§1)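 Designed RNA switches were made by on-chip transcription from Illumina sequencing clusters and then titrated with SNAP-549-labelled MS2 coat protein. Twofold steps ran from 0.7 or 1.5 nM to 3 µM, each lasting 0.8–1.5 h early and 10–20 min late, in 100 mM Tris-HCl pH 7.5, 80 mM KCl, 4 mM MgCl2, without or with constant ligand. Apparent KD is the per-design median of normalised cluster binding-curve fits.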

MS2 coat protein [2] = experiment: apparent KD of MS2 coat protein, switch OFF state (with FMN for OFF switches, without FMN for ON switches); designed switch direction (-1 OFF switch, 1 ON switch): 1; higher = weaker reporter binding
Outline: as §1

MS2 coat protein [3] = experiment: apparent KD of MS2 coat protein, switch OFF state (with FMN for OFF switches, without FMN for ON switches); designed switch direction (-1 OFF switch, 1 ON switch): -1; higher = weaker reporter binding
Outline: as §1

MS2 coat protein [4] = experiment: apparent KD of MS2 coat protein, switch ON state; designed switch direction (-1 OFF switch, 1 ON switch): -1; higher = weaker reporter binding
Outline: as §1

Sequence | apparent KD of MS2 coat protein (MS2 coat protein [1]) [µM] | apparent KD of MS2 coat protein (MS2 coat protein [2]) [µM] | apparent KD of MS2 coat protein (MS2 coat protein [3]) [µM] | apparent KD of MS2 coat protein (MS2 coat protein [4]) [µM]
AAAAAAUAAAAAAAGGAUAUCUGCAGUACGACAUGAGGAUCACCCAUGUGGUACUGCAGAUAUCAAAAGAAGGAAAAAUAAAAAA [SS2: MS2 52] | 0.0136 | 0.0181 |  | 
AAGAAACAUGAGGAUCACCCAUGUGAGAACAUGGGAGGAUAUACGAAGACGAAAGUCGAAGUAGAAGGCCUAAAAG [Garnet 80] | 0.243 | 0.0249 |  | 
AGGUAACAUGAGGAUCACCCAUGUACCAAUAAUGCAGGAUAUCGACACGAAAAUACGUGUCGAGAAGGGCAUGAAA [SS1 MT 22] | 0.0134 |  |  | 
ACCCGACAUGAGGAUCACCCAUGUAAACAAUCAUGAGGAUAUCCGGAGCAAGUGCUCCAGGGAGAAGGCAUAAAAG [Reesbema] |  | 0.122 |  | 
AGCACGUCAGGAUAUACGAACAAAACGGGAGAACUAAAGGGACAUGAGGAUCACCCAUGUAGAAGGGACAAGCA [Diamond 91] |  |  | 0.0911 | 0.0856
AACAGUACAGGAUAUACAUGAGGAUCACCCAUGUAAAGGGAAUAAAACAAAAAAAAAUGUAGAAGGGUACUGGA [Mat - Exclusion 3 - Eli mod - D66] |  |  | 0.11 | 0.0751
ACAAGAUCAGGAUAUACAUGAGGAUCACCCAUGUAUAAAAAAAAAGGGCCUUCUACAUGUAGAAGGGAUCUUGU [EX3 290: Random 26] |  |  | 0.0199 | 0.0143
AAAAAGUCAGGAUAUCGGAAAAAAAAAAUAAAAAAAAAAAACGAGAAGGGACAUGAGGAUCACCCAUGUAUGAC [Mat - Exclusion 4 - Mayanna - D112] |  |  | 0.0413 | 0.0374
AAAAAGUGAGGAUAUGCGAAGGCGUCUGAUAGACGAGGCUAGCAGAAGGCACAUGAGGAUCACCCAUGUGGGAA [Mat - Mod of Nando 64% 3] |  |  | 0.0985 | 0.0538
AUAGGCCUAGGAUAUACAUGAGGAUCACCCAUGUUAACACUGCAAUCAAGUUAAUAUUGUAGAAGGAGGAAUAA [JR_Exc003_Sub310] |  |  | 0.0261 | 0.0263
UAAAGACAUGAGGAUCACCCAUGUGAGGAUAUCGGAGAUAACAGAACAUCAAGUUCAGCGAGAAGGCACAGAAA [JR_Exc001_Sub402] |  |  | 0.072 | 0.0472
AAUAAGACAGGAUAUACGAAAAUAAGCGGAAACGCAAAGGGACAUGAGGAUCACCCAUGUAGAAGGGUCGAUAA [Tetraloop... 61% 3] |  |  | 0.19 | 0.0802
CACAAGUCAGGAUAUUCGACAAGUAAAUCAGUAGAUCAAAAGAAGAAGGGACAUGAGGAUCACCCAUGUAAAUA [JR_Exc004_Sub402] |  |  | 0.0223 | 0.0391
GAAAAGUGAGGAUAUGUCAAAAGUCACAAAAGUGACAAAAGACAGAAGGCACAUGAGGAUCACCCAUGUGGGAA [Mat - Exaclusion 4 - Eli mod - D50] |  |  | 0.211 | 0.0585
AGCAAGUAAGGAUAUGCAAAGUCAGGACACACACUGACGAAGCAGAAGGUACAUGAGGAUCACCCAUGUAAGCA [Mat - Exaclusion 4 - Eli mod - D61] |  |  | 0.018 | 0.0256
AAAACACAUGAGGAUCACCCAUGUGAGGAUAUGCUAUGGAAAUAAAAAAUAAAACAUAGCAGAAGGCACAAAAA [Mat - Exclusion 1 - Eli mod - D40] |  |  | 0.039 | 0.0239
AGGCUCCUAGGAUAUACUGGCUGGCCUCCACAAAAGAAAAUACAUGAGGAUCACCCAUGUAGAAGGAGGAGUGG [Geesar] |  |  | 0.0227 | 0.0193

Sequence | apparent KD of MS2 coat protein (MS2 coat protein [1]) [µM] | apparent KD of MS2 coat protein (MS2 coat protein [2]) [µM] | apparent KD of MS2 coat protein (MS2 coat protein [3]) [µM] | apparent KD of MS2 coat protein (MS2 coat protein [4]) [µM]
CAGUACUGAGGAUAUACAUGAGGAUCACCCAUGUAUCCUAGCUAGGAAACUAGCAAAAGUAGAAGGCAGUACUG [Ex3: 819] |  |  | 0.118 | 0.0135
AAGAACACAGGAUAUACAUGAGGAUCACCCAUGUAAAAGAAAGAAAGGGAAAAGAAAAGUAGAAGGGUGAAGAA [Aakheperre Pasebakhenniut I] |  |  | 0.0726 | 0.04
AAAUGCUGAGGAUAUACAUGAGGAUCACCCAUGUGAAAUAAAAAAUGUGUGUAAUCGUGUAGAAGGCAGCAUAA [Exclusion 3.13 (FMN+ favored more)] |  |  | 0.0181 | 0.0216
GGUUGGCGAGGAUAUACAUGAGGAUCACCCAUGUGAGAGAAAAAAGUGAGAUAGAAAAGUAGAAGGCGCUGACG [salish99-ex3-34] |  |  | 0.287 | 0.0588
GGAAAACAUGAGGAUCACCCAUGUCAGGAUAUACAAAGAAAGAAAGAAAAGAAAGAAAGUAGAAGGGACUAAAG [Amethyst 16] |  |  | 0.0379 | 0.0204
AACAGUACAGGAUAUACAUGAGGAUCACCCAUGUGAGAAUUAAGUGGAAGACCACAAAGUAGAAGGGUACUGAA [Mat - Exclusion 3 - JL mod - D10] |  |  | 0.189 | 0.0284
GGUUGUGAAGGAUAUACAUGAGGAUCACCCAUGUGAGAGAAAAAAGUGAGAAAGAAAAGUAGAAGGUCGUGACG [salish99-ex3-73] |  |  | 0.0402 | 0.0347
AGAAAGUCAGGAUAUACAGAUAAAAAAACGAAAAAAAAUCUGUAGAAGGGACAUGAGGAUCACCCAUGUAAAGA [Mat - Exclusion 4 - Mayanna - D102] |  |  | 0.0392 | 0.0494
CACGUACAUGAGGAUCACCCAUGUUAGGAUAUGCCGGGUAAGAGAAAACAAAAAAUCAGCAGAAGGGACGAAAC [Bilbo Confounded 17 - Jieux - Exclusion 1] |  |  | 0.0318 | 0.0341
AAGAAGUCAGGAUAUGCCAGAGAUCACGAAAGUGAUGAGUAGCAGAAGGGACAUGAGGAUCACCCAUGUAAAGA [Opal 6] |  |  | 0.0465 | 0.0482
AUAAAACAUGAGGAUCACCCAUGUGAGGAUAUCCAAAAAGAAAGAAAAAAAAAAAAAAGGAGAAGGCACAAUAA [Amethyst 46] |  |  | 0.0467 | 0.0676
ACUAAUGAAGGAUAUACAAACAACAAACACUCAACACACACACAUGAGGAUCACCCAUGUAGAAGGUCAAACAU [JR_Exc002_Sub1204] |  |  | 0.0182 | 0.0192
GAAAACUGAGGAUAUACUUUGGGAAAAGAAAAGAUGAUGUUACAUGAGGAUCACCCAUGUAGAAGGCAGAAAAG [Mat - Exclusion 2 - Mod - D151] |  |  | 0.0345 | 0.0253
AAAAAGACAGGAUAUACAUGAAAAAAAAAAAAAAAAAAAAAACAUGAGGAUCACCCAUGUAGAAGGGUCAAAAA [Starry's Exclusion 2] |  |  | 0.0546 | 0.0716
GAAGAACAUGAGGAUCACCCAUGUGAGGAUAUACAGAAGGGAAUAAAAUAACCAGAAAGUAGAAGGCACAAGAA [Ex 1 May 40] |  |  | 0.0457 | 0.0351
AAAAAUUGAGGAUAUACGUACAUGUCAAAAGACGUGAAGGGACAUGAGGAUCACCCAUGUAGAAGGCGAAAAAA [JL Neck Breaker 12] |  |  | 0.0136 | 0.0388
AGGAAACAUGAGGAUCACCCAUGUCAGGAUAUAUGAAAGAAAAGAAAAGAAAGAAGAAGUAGAAGGGACAAGAA [Ka] |  |  | 0.0299 | 0.0298
